Key:
Experiment in all cases: co-IP (IP: Strep, western blot bands quantified with ImageJ)
[1] = target: GP4 of PRRSV HuN4-F112, Strep-tagged (pCAGGS-GP4-Strep); details: plasmids cotransfected into HEK-293T cells; parent: est. 0.86; read off a plot
[2] = target: CD163 receptor, HA-tagged (pCAGGS-CD163-HA) (UniProt Q2VL90); details: plasmids cotransfected into HEK-293T cells, read off a plot
[3] = target: GP2a of PRRSV HuN4-F112, Strep-tagged (pCAGGS-GP2a-Strep); details: chain shown with the change; plasmids cotransfected into HEK-293T cells; parent: est. 2.9; read off a plot

## CD163 receptor, HA-tagged (pCAGGS-CD163-HA) (from UniProt Q2VL90) R561A
[1]
  response (relative ratio of CD163/GP4): 0.64

## CD163 receptor, HA-tagged (pCAGGS-CD163-HA) (from UniProt Q2VL90) R561del
[1]
  response (relative ratio of CD163/GP4): 0.27

## GP2a of PRRSV HuN4-F112, Strep-tagged (pCAGGS-GP2a-Strep) V118I
[2]; parent: est. 0.18
  response (relative ratio of CD163/GP2): 0.67

## GP2a of PRRSV HuN4-F112, Strep-tagged (pCAGGS-GP2a-Strep) V118del
[2]; parent: est. 0.61
  response (relative ratio of CD163/GP2): 0.23

## GP4 of PRRSV HuN4-F112, Strep-tagged (pCAGGS-GP4-Strep) N43D
[2]; parent: est. 0.74
  response (relative ratio of CD163/GP4): 1.4

## GP4 of PRRSV HuN4-F112, Strep-tagged (pCAGGS-GP4-Strep) N43del
[2]; parent: est. 1.2
  response (relative ratio of CD163/GP4): 0.57

B1: CD163 receptor, HA-tagged (pCAGGS-CD163-HA), Q2VL90 R561A (protein)
chain: KDKELRLTGGENKCSGRVEVKVQEEWGTVCNNGWDMDVVSVVCRQLGCPTAIKATGWANFSAGSGRIWMDHVSCRGNESALWDCKHDGWGKHNCTHQQDAGVTCSDGSDLEMGLVNGGNRCLGRIEVKFQGRWGTVCDDNFNINHASVVCKQLECGSAVSFSGSANFGEGSGPIWFDDLVCNGNESALWNCKHEGWGKHNCDHAEDAGVICLNGADLKLRVVDGVTECSGRLEVKFQGEWGTICDDGWDSDDAAVACKQLGCPTAVTAIGRVNASEGTGHIWLDSVSCHGHESALWQCRHHEWGKHYCNHDEDAGVTCSDGSDLELRLKGGGSHCAGTVEVEIQKLVGKVCDRSWGLKEADVVCRQLGCGSALKTSYQVYSKTKATNTWLFVSSCNGNETSLWDCKNWQWGGLSCDHYDEAKITCSAHRKPRLVGGDIPCSGRVEVQHGDTWGTVCDSDFSLEAASVLCRELQCGTVVSLLGGAHFGEGSGQIWAEEFQCEGHESHLSLCPVAPAPDGTCSHSRDVGVVCSRYTQIRLVNGKTPCEGRVELNILGSWGSLCNSHWDMEDAHVLCQQLKCGVALSIPGGAPFGKGSEQVWRHMFHCTGTEKHMGDCSVTALGASLCSSGQVASVICSGNQSQTLSPCNSSSSDPSSSIISEENGVACIGSGQLRLVDGGGRCAGRVEVYHEGSWGTICDDSWDLNDAHVVCKQLSCGWAINATGSAHFGEGTGPIWLDEINCNGKESHIWQCHSHGWGRHNCRHKEDAGVICSEFMSLRLISENSRETCAGRLEVFYNGAWGSVGRNSMSPATVGVVCRQLGCADRGDISPASSDKTVSRHMWVDNVQCPKGPDTLWQCPSSPWKKRLASPSEETWITCANKIRLQEGNTNCSGRVEIWYGGSWGTVCDDSWDLEDAQVVCRQLGCGSALEAGKEAAFGQGTGPIWLNEVKCKGNETSLWDCPARSWGHSDCGHKEDAAVTCSEIAKSRESLHATGRSSFVALAIFGVILLACLIAFLIWTQKRRQRQRLSVFSGGENSVHQIQYREMNSCLKADETDMLNPSGDHSEVQ
[3]
  response (relative ratio of CD163/GP2): 1.8

B2: CD163 receptor, HA-tagged (pCAGGS-CD163-HA), Q2VL90 R561del (protein)
chain: KDKELRLTGGENKCSGRVEVKVQEEWGTVCNNGWDMDVVSVVCRQLGCPTAIKATGWANFSAGSGRIWMDHVSCRGNESALWDCKHDGWGKHNCTHQQDAGVTCSDGSDLEMGLVNGGNRCLGRIEVKFQGRWGTVCDDNFNINHASVVCKQLECGSAVSFSGSANFGEGSGPIWFDDLVCNGNESALWNCKHEGWGKHNCDHAEDAGVICLNGADLKLRVVDGVTECSGRLEVKFQGEWGTICDDGWDSDDAAVACKQLGCPTAVTAIGRVNASEGTGHIWLDSVSCHGHESALWQCRHHEWGKHYCNHDEDAGVTCSDGSDLELRLKGGGSHCAGTVEVEIQKLVGKVCDRSWGLKEADVVCRQLGCGSALKTSYQVYSKTKATNTWLFVSSCNGNETSLWDCKNWQWGGLSCDHYDEAKITCSAHRKPRLVGGDIPCSGRVEVQHGDTWGTVCDSDFSLEAASVLCRELQCGTVVSLLGGAHFGEGSGQIWAEEFQCEGHESHLSLCPVAPPDGTCSHSRDVGVVCSRYTQIRLVNGKTPCEGRVELNILGSWGSLCNSHWDMEDAHVLCQQLKCGVALSIPGGAPFGKGSEQVWRHMFHCTGTEKHMGDCSVTALGASLCSSGQVASVICSGNQSQTLSPCNSSSSDPSSSIISEENGVACIGSGQLRLVDGGGRCAGRVEVYHEGSWGTICDDSWDLNDAHVVCKQLSCGWAINATGSAHFGEGTGPIWLDEINCNGKESHIWQCHSHGWGRHNCRHKEDAGVICSEFMSLRLISENSRETCAGRLEVFYNGAWGSVGRNSMSPATVGVVCRQLGCADRGDISPASSDKTVSRHMWVDNVQCPKGPDTLWQCPSSPWKKRLASPSEETWITCANKIRLQEGNTNCSGRVEIWYGGSWGTVCDDSWDLEDAQVVCRQLGCGSALEAGKEAAFGQGTGPIWLNEVKCKGNETSLWDCPARSWGHSDCGHKEDAAVTCSEIAKSRESLHATGRSSFVALAIFGVILLACLIAFLIWTQKRRQRQRLSVFSGGENSVHQIQYREMNSCLKADETDMLNPSGDHSEVQ
[3]
  response (relative ratio of CD163/GP2): 1.8

Reference: PMC12456131
